Laboratory results taken from patent US20220010337A1.

Biological target: IL2 receptors (on the HEK IL-2 reporter cell line) (human) (UniProt P01589)
Test: cell-based or functional assay

Sequence of IL2 receptors (on the HEK IL-2 reporter cell line) (human) (P01589 22-272, chain 1 of 3): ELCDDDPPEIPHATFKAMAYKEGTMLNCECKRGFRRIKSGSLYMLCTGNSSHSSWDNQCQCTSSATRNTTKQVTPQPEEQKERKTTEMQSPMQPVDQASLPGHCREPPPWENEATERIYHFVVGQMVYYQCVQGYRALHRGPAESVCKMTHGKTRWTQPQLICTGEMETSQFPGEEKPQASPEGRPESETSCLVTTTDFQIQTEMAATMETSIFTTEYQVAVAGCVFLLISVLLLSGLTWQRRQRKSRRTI
Sequence of IL2 receptors (on the HEK IL-2 reporter cell line) (human) (P14784 27-551, chain 2 of 3, further chain): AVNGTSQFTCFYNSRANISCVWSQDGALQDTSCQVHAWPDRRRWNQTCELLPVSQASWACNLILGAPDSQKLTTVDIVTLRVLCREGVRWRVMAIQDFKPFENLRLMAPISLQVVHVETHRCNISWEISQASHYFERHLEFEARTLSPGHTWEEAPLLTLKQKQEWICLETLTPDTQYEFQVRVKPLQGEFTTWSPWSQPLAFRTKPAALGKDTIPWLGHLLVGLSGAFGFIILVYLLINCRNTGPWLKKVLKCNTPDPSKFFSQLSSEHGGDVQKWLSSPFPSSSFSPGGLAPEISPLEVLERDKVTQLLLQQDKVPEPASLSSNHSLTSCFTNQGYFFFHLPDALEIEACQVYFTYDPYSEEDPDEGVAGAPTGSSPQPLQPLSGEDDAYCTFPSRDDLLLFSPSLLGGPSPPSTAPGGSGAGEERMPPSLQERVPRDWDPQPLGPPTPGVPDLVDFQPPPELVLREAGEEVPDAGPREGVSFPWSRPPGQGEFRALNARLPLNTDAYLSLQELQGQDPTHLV
Sequence of IL2 receptors (on the HEK IL-2 reporter cell line) (human) (P31785 23-369, chain 3 of 3, further chain): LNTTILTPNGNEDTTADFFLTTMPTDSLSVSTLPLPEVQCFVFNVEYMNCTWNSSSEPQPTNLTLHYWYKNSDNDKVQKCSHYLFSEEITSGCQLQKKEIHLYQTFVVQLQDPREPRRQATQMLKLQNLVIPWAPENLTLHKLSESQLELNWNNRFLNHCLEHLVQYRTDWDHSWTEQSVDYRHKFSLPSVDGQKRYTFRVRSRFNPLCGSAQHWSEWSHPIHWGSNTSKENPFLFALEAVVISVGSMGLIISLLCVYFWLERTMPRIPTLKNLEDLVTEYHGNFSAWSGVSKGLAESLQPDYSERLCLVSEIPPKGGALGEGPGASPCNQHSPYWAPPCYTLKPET

Substance	IL-2 EC50 (nM) (approx.); SEAP induction in the HEK IL-2 reporter cell line, OD
Cas9-2xNLS-IL2(superkine) (from UniProt P60568 21-153)	0.87
Cas9-2xNLS-mouse WT IL2 (from UniProt P04351 21-169)	0.34
IL2(SK)-SpyTag (ligand)	0.037
SpyCatcher-Cas9(WT)-2xNLS:Spytag-IL2(SK) conjugate (from UniProt Q99ZW2 2-1368)	0.0095
recombinant mouse IL-2 (from UniProt P04351 21-169) (ligand)	0.0057
